Reference: US20260248972A1, “DUAL RECEPTOR TARGETING RADIOLIGANDS AND USES THEREOF RELATED APPLICATIONS” (priority 2022, published 2026)
Where two headings read alike, the source gives them in different places.

Columns and labels:
CCK2R = molecular target: T1, CCK2R (Rattus norvegicus, UniProt P30553); test: Competitive cell-binding assay on AR42J cells with 125I-C3 as competitive ligand
T1 construct: host or cells: AR42J cells
T1 sequence (P30553 1-452): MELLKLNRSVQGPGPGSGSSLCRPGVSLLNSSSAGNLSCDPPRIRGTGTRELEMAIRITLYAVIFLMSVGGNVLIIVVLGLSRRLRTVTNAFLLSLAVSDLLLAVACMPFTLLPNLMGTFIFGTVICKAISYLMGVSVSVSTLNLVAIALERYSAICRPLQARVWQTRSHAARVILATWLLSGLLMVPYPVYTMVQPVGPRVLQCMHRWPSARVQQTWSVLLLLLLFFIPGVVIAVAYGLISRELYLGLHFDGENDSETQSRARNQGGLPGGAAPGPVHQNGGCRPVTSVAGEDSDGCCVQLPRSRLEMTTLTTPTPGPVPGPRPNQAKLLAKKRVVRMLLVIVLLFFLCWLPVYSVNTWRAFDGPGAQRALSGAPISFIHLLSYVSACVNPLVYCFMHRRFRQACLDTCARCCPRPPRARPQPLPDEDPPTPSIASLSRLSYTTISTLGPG
How it was run: (§1)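 Rat AR42J cells (1~3×10^6 cells/mL) in RPMI-1640 with 0.25% BSA incubated with 125I-C1 or 125I-C3 (0.02 μCi/well) plus test compound (0-10000 nM) for 1 h at 37° C., n=3. Unbound ligand removed by filtration; bound radioactivity γ-counted; IC50 by nonlinear regression.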

SSTR2 = molecular target: T2, SSTR2 (Rattus norvegicus, UniProt P30680); test: Competitive cell-binding assay on AR42J cells with 125I-C1 as competitive ligand
T2 construct: host or cells: AR42J cells
How it was run: as §1

in vivo = settings: BALB/c nude, mouse, in vivo, iv, total radioactivity
How it was run: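 Compounds labelled with ^177Lu in 0.5 M NaOAc pH 4.5 at 95° C for 15 min, then used directly or diluted in PBS with 3 mg/mL ascorbate. BALB/c nude mice bore subcutaneous AR42J flank xenografts (0.05-0.50 g). Organs excised at 4, 24 and 72 h post-injection and γ-counted for % ID and % ID/g.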

T2 sequence (P30680 whole entry): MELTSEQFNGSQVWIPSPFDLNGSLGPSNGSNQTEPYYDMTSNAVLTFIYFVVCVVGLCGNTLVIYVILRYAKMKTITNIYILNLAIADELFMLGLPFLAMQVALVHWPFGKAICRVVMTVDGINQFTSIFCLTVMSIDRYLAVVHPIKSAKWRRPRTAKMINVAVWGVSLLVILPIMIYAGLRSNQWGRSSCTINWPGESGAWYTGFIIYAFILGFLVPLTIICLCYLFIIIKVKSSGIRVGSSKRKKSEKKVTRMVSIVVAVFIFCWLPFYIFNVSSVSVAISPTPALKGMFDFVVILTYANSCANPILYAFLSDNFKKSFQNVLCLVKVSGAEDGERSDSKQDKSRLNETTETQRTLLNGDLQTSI

Row | SMILES | Relative Binding Affinity CCK2R (CCK2R; based on mean IC50, C-2 = 1.00) | Relative Binding Affinity SSTR2 (SSTR2; based on mean IC50, C-1 = 1.00) | tissue to tissue ratio at 24 h (in vivo; T/K Tumor/Kidney ratio) | tissue to tissue ratio at 24 h (in vivo; T/L Tumor/Liver ratio) | tissue to tissue ratio at 24 h (in vivo; T/P Tumor/Pancreas ratio) | tissue to tissue ratio at 24 h (in vivo; T/Sp Tumor/Spleen ratio) | tissue to tissue ratio at 24 h (in vivo; T/St Tumor/Stomach ratio) | tissue uptake at 24 h (in vivo; uptake Kidney) | tissue uptake at 24 h (in vivo; uptake Liver) | tissue uptake at 24 h (in vivo; uptake Pancreas) | tissue uptake at 24 h (in vivo; uptake Spleen) | tissue uptake at 24 h (in vivo; uptake Stomach) | tissue uptake at 24 h (in vivo; uptake Tumor) | other results
1 | C[C@@H](O)[C@H](NC(=O)[C@@H]1CSSC[C@H](NC(=O)[C@@H](Cc2ccccc2)NC(=O)COCCOCCNC(=O)C(CCCCNC(=O)CC[C@H](NC(=O)CNC(=O)c2cccc(NC(=O)N[C@@H]3CN(C4CCCCC4)c4ccccc4N(CC(=O)C(C)(C)C)C3=O)c2)C(=O)O)NC(=O)COCCOCCNC(=O)CC[C@H](NC(=O)CC[C@H](NC(=O)CN2CCN(CC(=O)O)CCN(CC(=O)O)CCN(CC(=O)O)CC2)C(=O)O)C(=O)O)C(=O)N[C@@H](Cc2ccc(O)cc2)C(=O)N[C@H](Cc2c[nH]c3ccccc23)C(=O)N[C@@H](CCCCN)C(=O)N[C@@H]([C@@H](C)O)C(=O)N1)C(=O)O (stereo in doubt) [Compound I-14, DOTA-gE-gE-OEG-K(-gE-G-Z360)-OEG-f[CYwKTC]T-OH] | 3.80 | 3.50 | 0.2 | 6.7 | 4.4 | 27 | 6.6 | 68.6 %ID/g | 2.24 %ID/g | 3.37 %ID/g | 0.56 %ID/g | 2.25 %ID/g | 14.9 %ID/g | –
2 | C[C@@H](O)[C@H](NC(=O)[C@@H]1CSSC[C@H](NC(=O)[C@@H](Cc2ccccc2)NC(=O)[C@H](CCCCNC(=O)COCCOCCNC(=O)COCCOCCNC(=O)c2cccc(NC(=O)N[C@@H]3CN(C4CCCCC4)c4ccccc4N(CC(=O)C(C)(C)C)C3=O)c2)NC(=O)CN2CCN(CC(=O)O)CCN(CC(=O)O)CCN(CC(=O)O)CC2)C(=O)N[C@@H](Cc2ccc(O)cc2)C(=O)N[C@H](Cc2c[nH]c3ccccc23)C(=O)N[C@@H](CCCCN)C(=O)N[C@@H]([C@@H](C)O)C(=O)N1)C(=O)O [Compound I-42, DOTA-K(-OEG-OEG-Z360)-f]CYwKTC]T-OH] | 115 | 0.54 | 1.1 | 3.3 | 12 | 62 | 8.8 | 17.8 %ID/g | 5.6 %ID/g | 1.6 %ID/g | 0.3 %ID/g | 2.1 %ID/g | 18.7 %ID/g | –
3 | C[C@@H](O)[C@H](NC(=O)[C@@H]1CSSC[C@H](NC(=O)[C@@H](Cc2ccccc2)NC(=O)[C@H](CCCCNC(=O)c2cccc(NC(=O)N[C@@H]3CN(C4CCCCC4)c4ccccc4N(CC(=O)C(C)(C)C)C3=O)c2)NC(=O)CN2CCN(CC(=O)O)CCN(CC(=O)O)CCN(CC(=O)O)CC2)C(=O)N[C@@H](Cc2ccc(O)cc2)C(=O)N[C@H](Cc2c[nH]c3ccccc23)C(=O)N[C@@H](CCCCN)C(=O)N[C@@H]([C@@H](C)O)C(=O)N1)C(=O)O [Compound I-34, DOTA-K(Z360)-f[CYwKTC]T-OH] | – | – | – | – | – | – | – | – | – | – | – | – | – | Relative Binding Affinity CCK2R (CCK2R): 5.9; Relative Binding Affinity SSTR2 (SSTR2): 1.49; tissue to tissue ratio at 24 h (in vivo; T/K Tumor/Kidney ratio, 177Lu-labeled, 24 hours after dosing): 3.7; tissue to tissue ratio at 24 h (in vivo; T/L Tumor/Liver ratio, 177Lu-labeled, 24 hours after dosing): 1.1; tissue to tissue ratio at 24 h (in vivo; T/P Tumor/Pancreas ratio, 177Lu-labeled, 24 hours after dosing): 7; tissue to tissue ratio at 24 h (in vivo; T/Sp Tumor/Spleen ratio, 177Lu-labeled, 24 hours after dosing): 2.4; tissue to tissue ratio at 24 h (in vivo; T/St Tumor/Stomach ratio, 177Lu-labeled, 24 hours after dosing): 4; tissue uptake at 24 h (in vivo; uptake Kidney, 177Lu-labeled, 24 hours after dosing (Table 5)): 6.1 %ID/g; tissue uptake at 24 h (in vivo; uptake Liver, 177Lu-labeled, 24 hours after dosing (Table 5)): 19.8 %ID/g; tissue uptake at 24 h (in vivo; uptake Pancreas, 177Lu-labeled, 24 hours after dosing (Table 5)): 3.2 %ID/g; tissue uptake at 24 h (in vivo; uptake Spleen, 177Lu-labeled, 24 hours after dosing (Table 5)): 9.5 %ID/g; tissue uptake at 24 h (in vivo; uptake Stomach, 177Lu-labeled, 24 hours after dosing (Table 5)): 5.7 %ID/g; tissue uptake at 24 h (in vivo; uptake Tumor, 177Lu-labeled, 24 hours after dosing (Table 5)): 22.7 %ID/g
4 | C[C@@H](O)[C@H](NC(=O)[C@@H]1CSSC[C@H](NC(=O)[C@@H](Cc2ccccc2)NC(=O)CC[C@H](NC(=O)[C@H](CCCCNC(=O)CC[C@H](NC(=O)CNC(=O)c2cccc(NC(=O)N[C@@H]3CN(C4CCCCC4)c4ccccc4N(CC(=O)C(C)(C)C)C3=O)c2)C(=O)O)NC(=O)CC[C@H](NC(=O)CN2CCN(CC(=O)O)CCN(CC(=O)O)CCN(CC(=O)O)CC2)C(=O)O)C(=O)O)C(=O)N[C@@H](Cc2ccc(O)cc2)C(=O)N[C@H](Cc2c[nH]c3ccccc23)C(=O)N[C@@H](CCCCN)C(=O)N[C@@H]([C@@H](C)O)C(=O)N1)C(=O)O [Compound I-9, DOTA-gE-K(-gE-G-Z360)-gE-f[CYwKTC]T-OH] | 13.5 | 2.85 | 0.3 | 8.3 | 3.8 | 11 | 3.4 | 42.2 %ID/g | 1.31 %ID/g | 2.89 %ID/g | 1.03 %ID/g | 3.22 %ID/g | 10.9 %ID/g | –
5 | C[C@@H](O)[C@H](NC(=O)[C@@H]1CSSC[C@H](NC(=O)[C@@H](Cc2ccccc2)NC(=O)COCCOCCNC(=O)[C@H](CCCCNC(=O)[C@H](CCC(=O)O)NC(=O)c2cccc(NC(=O)N[C@@H]3CN(C4CCCCC4)c4ccccc4N(CC(=O)C(C)(C)C)C3=O)c2)NC(=O)CN2CCN(CC(=O)O)CCN(CC(=O)O)CCN(CC(=O)O)CC2)C(=O)N[C@@H](Cc2ccc(O)cc2)C(=O)N[C@H](Cc2c[nH]c3ccccc23)C(=O)N[C@@H](CCCCN)C(=O)N[C@@H]([C@@H](C)O)C(=O)N1)C(N)=O [Compound I-3, DOTA-K(-E-Z360)-OEG-f[CYwKTC]T-NH2] | 5.3 | 0.50 | 0.8 | 12 | 13 | 45 | 4.2 | 16.5 %ID/g | 1.16 %ID/g | 1.05 %ID/g | 0.3 %ID/g | 3.24 %ID/g | 13.6 %ID/g | –
6 | C[C@@H](O)[C@H](NC(=O)[C@@H]1CSSC[C@H](NC(=O)[C@@H](Cc2ccccc2)NC(=O)COCCOCCNC(=O)[C@H](CCCCNC(=O)CCC(C(=O)O)N2CCN(CC(=O)O)CCN(CC(=O)O)CCN(CC(=O)O)CC2)NC(=O)COCCOCCNC(=O)CC[C@H](NC(=O)CC[C@H](NC(=O)c2cccc(NC(=O)N[C@@H]3CN(C4CCCCC4)c4ccccc4N(CC(=O)C(C)(C)C)C3=O)c2)C(=O)O)C(=O)O)C(=O)N[C@@H](Cc2ccc(O)cc2)C(=O)N[C@H](Cc2c[nH]c3ccccc23)C(=O)N[C@@H](CCCCN)C(=O)N[C@@H]([C@@H](C)O)C(=O)N1)C(=O)O (some centres unmarked) [Compound I-13, (Z360)- gE- gE- OEG- K(DOTAGA)- OEG- f[CYwKTC]T- OH] | 10.8 | 0.23 | 0.3 | 12 | 12 | 32 | 6.8 | 46.7 %ID/g | 1.21 %ID/g | 1.21 %ID/g | 0.47 %ID/g | 2.19 %ID/g | 14.8 %ID/g | IC50 (CCK2R; AR42J cells, 125I-C3 competitive ligand, 37° C. 1 h, read-out: CCK2R/IC50): 1.6 nM; IC50 (SSTR2; AR42J cells, 125I-C1 competitive ligand, 37° C. 1 h, read-out: SSTR2/IC50): 12.3 nM
